Laboratory results reported in PMC4856591 (Structure (London, England : 1993), 2016).

Molecular target: the molecule itself
Experiment: SAXS

B1: Human PKG Iβ LZ:CNB-A/B (residues 1-369) (domain or fragment, UniProt Q13976-2 1-369, looked up)
chain: MGTLRDLQYALQEKIEELRQRDALIDELELELDQKDELIQKLQNELDKYRSVIRPATQQAQKQSASTLQGEPRTKRQAISAEPTAFDIQDLSHVTLPFYPKSPQSKDLIKEAILDNDFMKNLELSQIQEIVDCMYPVEYGKDSCIIKEGDVGSLVYVMEDGKVEVTKEGVKLCTMGPGKVFGELAILYNCTRTATVKTLVNVKLWAIDRQCFQTIMMRTGLIKHTEYMEFLKSVPTFQSLPEEILSKLADVLEETHYENGEYIIRQGARGDTFFIISKGTVNVTREDSPSEDPVFLRTLGKGDWFGEKALQGEDVRTANVIAAEAVTCLVIDRDSFKHLIGGLDDVSNKAYEDAEAKAKYEAEAAFFAN
Does B1 bind?
Result: binds
